Measurements reported in patent publication US20210041163A1 (Hoffmann-La Roche, published 2021).

Molecular target: T1, human neonatal Fc receptor (FcRn), FcRn beta-2-microglobulin complex (human, UniProt P55899 24-297; P61769 21-119)
T1 construct: also called human FcRn
Experiment: SPR-based binding assay, relative to the reference antibody

T1 sequence (P55899 24-297 limits assumed, chain 1 of 2): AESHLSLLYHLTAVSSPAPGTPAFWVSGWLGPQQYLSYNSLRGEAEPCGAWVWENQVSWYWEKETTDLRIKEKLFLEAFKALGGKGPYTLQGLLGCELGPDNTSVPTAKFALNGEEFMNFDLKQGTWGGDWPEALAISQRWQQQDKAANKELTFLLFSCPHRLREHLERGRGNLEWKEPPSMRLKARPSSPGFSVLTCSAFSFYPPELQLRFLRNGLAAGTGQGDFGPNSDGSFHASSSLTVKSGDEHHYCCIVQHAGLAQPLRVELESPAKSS
T1 sequence (P61769 21-119 limits assumed, chain 2 of 2): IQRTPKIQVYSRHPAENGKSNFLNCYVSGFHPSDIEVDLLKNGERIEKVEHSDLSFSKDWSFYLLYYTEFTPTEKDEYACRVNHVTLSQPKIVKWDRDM

B1: anti-digoxygenin antibody variant 7 (LC-G57R and LC-S60K) (antibody, human IgG1, kappa, name in Kabat numbering)
heavy: not shown
light: DIQMTQSPSSLSASVGDRVTITCRASQDIKNYLNWYQQKPGKAPKLLIYYSSTLLSRVPKRFSGSGSGTDFTLTISSLQPEDFATYYCQQSITLPPTFGGGTKVEIKRRTVAAPSVFIFPPSDEQLKSGTASVVCLLNNFYPREAKVQWKVDNALQSGNSQESVTEQDSKDSTYSLSSTLTLSKADYEKHKVYACEVTHQGLSSPVTKSFNRGEC
notes: Variant of m1
relative SPR binding: 161%
